Experimental data from patent US20130023423, “TRANSPOSON NUCLEIC ACIDS COMPRISING A CALIBRATION SEQUENCE FOR DNA SEQUENCING” (Finnzymes Oy, published 2013).
Changes are numbered by the printed parent chain.

Assays:
Conditions in all cases: chain copies: 4
[1] = biological target: T1, MuA transposase (UniProt P07636 P07636:1-663); test: EMSA; transpososome complex band about 300 bp; 30 C 1 h, Tris pH 8, EDTA, NaCl, 10% DMSO; complexes fragment gDNA with 10 mM MgCl2 (FIG. 2)
[2] = biological target: T1, MuA transposase; test: EMSA; complexes formed and active; 30 C 1 h
[3] = biological target: T1, MuA transposase; test: EMSA; no complex formed, no transposition activity; 30 C 1 h
[4] = biological target: T1, MuA transposase; test: EMSA; worked well in complex formation and gDNA fragmentation (FIG. 4)
[5] = biological target: T1, MuA transposase; test: EMSA; worked well in complex formation and gDNA fragmentation; the cited figure shows fragmentation

T1 sequence (P07636 whole entry, the tested form may be a part, one chain of several): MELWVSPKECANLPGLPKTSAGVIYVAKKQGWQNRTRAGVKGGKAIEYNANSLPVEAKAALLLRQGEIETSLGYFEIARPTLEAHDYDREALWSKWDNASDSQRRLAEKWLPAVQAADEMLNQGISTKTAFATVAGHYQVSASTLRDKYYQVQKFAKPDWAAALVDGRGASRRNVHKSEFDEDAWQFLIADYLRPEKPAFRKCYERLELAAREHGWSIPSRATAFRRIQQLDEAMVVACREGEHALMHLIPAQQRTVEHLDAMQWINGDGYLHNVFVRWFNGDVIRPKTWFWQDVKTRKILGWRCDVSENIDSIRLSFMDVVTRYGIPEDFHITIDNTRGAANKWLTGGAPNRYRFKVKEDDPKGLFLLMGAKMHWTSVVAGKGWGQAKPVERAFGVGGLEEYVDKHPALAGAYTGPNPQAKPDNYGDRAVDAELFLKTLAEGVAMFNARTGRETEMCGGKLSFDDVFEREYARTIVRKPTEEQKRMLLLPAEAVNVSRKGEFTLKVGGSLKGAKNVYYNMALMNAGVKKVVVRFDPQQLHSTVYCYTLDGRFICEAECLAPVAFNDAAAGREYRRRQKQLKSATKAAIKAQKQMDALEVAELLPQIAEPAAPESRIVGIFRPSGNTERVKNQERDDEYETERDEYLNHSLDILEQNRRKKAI

B1: native Mu transposon end (dsDNA)
DNA 1: GTTTTCGCATTTATCGTGAAACGCTTTCGCGTTTTTCGTGCGCCGCTTCA
DNA 2: TGAAGCGGCGCACGAAAAACGCGAAAGCGTTTCACGATAAATGCGAAAAC
B1: binds [1].

B2: Mu end with GTCA key (dsDNA)
DNA 1: B1 DNA 1 with T47G
DNA 2: B1 DNA 2 with A4C
B2: binds [2].

B3: Mu end with 3' TCAG key (dsDNA)
DNA 1: B1 DNA 1 with T48C, C49A, A50G
DNA 2: B1 DNA 2 with T1C, G2T, A3G
B3: no binding [3].

B4: Mu end with internal TCAG key (5th, 6th, 8th bases) (dsDNA)
DNA 1: B1 DNA 1 with C43T, G45A, C46G
DNA 2: B1 DNA 2 with G5C, C6T, G8A
B4: binds [4].

B5: Mu end with TGCA key (dsDNA)
DNA 1: B1 DNA 1 with T48G
DNA 2: B1 DNA 2 with A3C
B5: binds [2].

B6: Mu end modified at 10th and 11th bases (dsDNA)
DNA 1: B1 DNA 1 with G40C, C41A
DNA 2: B1 DNA 2 with G10T, C11G
B6: binds [5].
